Source: US20060228358A1 (UCB, published 2006)
Substitutions are numbered along the chain they refer to. Values joined by “and” are separate entries in the source; they are usually repeats but may differ in a detail not shown here. Equal values may be shown once.

B1: murine monoclonal antibody IC8 (antibody, V domains shown)
VH: DVQLVESGGGLVKPGGSLKLSCAASGFDFSRYDMSWVRQTPEKRLEWVAYISSGGGSTYFPDTVKGRFTISRDNAKNTLYLQMNNLQSEDTAMFYCARQNKKLTWFDYWGQGTLVTVSS
VL: DIQMTQSPASLSASVGETVTITCRTSGNIHNYLTWYQQNLGKSPQLLVYNAKTLADGVPSRFSGSGSGTQFSLTINSLQPEDFGNYYCQHFWSLPFTFGSGTKLEIKR
notes: Mouse monoclonal antibody from a hybridoma; also called mIC8; donor antibody
B2: gH3gL3 Fab′ (E. coli-produced) (Fab, V domains shown)
VH: B1 VH with D1E, K13Q, K19R, T40A, E42G, N85S, Q87R, S88A, M93V, F94Y
VL: DIQMTQSPSSLSASVGDRVTITCRTSGNIHNYLTWYQQKPGKAPQLLIYNAKTLADGVPSRFSGSGSGTQFTLTISSLQPEDFANYYCQHFWSLPFTFGQGTKVEIKR
notes: Unpegylated Fab′ with a modified hinge, purified from E. coli periplasm; also called gIC8 Fab′; IC8gL3gH3 Fab′
B3: CDR-grafted IC8 antibody gH1gL2 (antibody, V domains shown)
VH: B1 VH with D1E, K13Q, K19R, T40A, E42G, N85S, Q87R, S88A, F94Y
VL: B2 VL with I48V
notes: Human gamma-4 heavy and kappa light constant regions (pMRR14 and pMRR10), expressed in CHO-L761 cells
B4: double chimeric IC8 antibody molecule cHcL (antibody, V domains shown)
VH: B1 VH
VL: B1 VL
notes: Murine IC8 V-regions on human gamma-4 heavy and human kappa light constant regions (vectors pMRR14 and pMRR10), expressed in CHO-L761 cells
B5: CDR-grafted IC8 antibody gH3gL1 (antibody, V domains shown)
VH: B1 VH with D1E, K13Q, K19R, T40A, E42G, N85S, Q87R, S88A, M93V, F94Y
VL: B2 VL with P40L, I48V
notes: as for B3
B6: CDR-grafted IC8 antibody gH3gL3 (antibody, V domains shown)
VH: B1 VH with D1E, K13Q, K19R, T40A, E42G, N85S, Q87R, S88A, M93V, F94Y
VL: B2 VL
notes: Human gamma-4 heavy and kappa light constant regions (pMRR14 and pMRR10), expressed in CHO-L761 cells; also called gL3gH3
B7: CDR-grafted IC8 antibody gH1gL1 (antibody, V domains shown)
VH: B1 VH with D1E, K13Q, K19R, T40A, E42G, N85S, Q87R, S88A, F94Y
VL: B2 VL with P40L, I48V
notes: as for B3
B8: CDR-grafted IC8 antibody gH2gL3 (antibody, V domains shown)
VH: B1 VH with D1E, K13Q, K19R, T40A, E42G, R44G, N85S, Q87R, S88A, F94Y
VL: B2 VL
notes: as for B3
B9: CDR-grafted IC8 antibody gH1gL3 (antibody, V domains shown)
VH: B1 VH with D1E, K13Q, K19R, T40A, E42G, N85S, Q87R, S88A, F94Y
VL: B2 VL
notes: as for B3
B10: CDR-grafted IC8 antibody gH2gL1 (antibody, V domains shown)
VH: B1 VH with D1E, K13Q, K19R, T40A, E42G, R44G, N85S, Q87R, S88A, F94Y
VL: B2 VL with P40L, I48V
notes: as for B3
B11: CDR-grafted IC8 antibody gH3gL2 (antibody, V domains shown)
VH: B1 VH with D1E, K13Q, K19R, T40A, E42G, N85S, Q87R, S88A, M93V, F94Y
VL: B2 VL with I48V
notes: as for B3

What follows are binders tested against T1, recombinant human IL-1β (human, UniProt P01584 117-269) (assay: BIAcore, captured antibody, IL-1β titrated in solution, 25 °C).
T1 construct: Only the background speaks of the mature 17 kDa form; also called hIL-1β; interleukin-1β

For B1, the Kd was 0.3 nM.

These binders were tested against T1, recombinant human IL-1β (assay: BIAcore, Fab′ captured by anti-hF(ab′)2, IL-1β titrated in solution, 25 °C).
Description: Affinipure goat anti-human IgG, F(ab′)₂ fragment-specific (Jackson ImmunoResearch Code 109-005-097) was immobilised on flowcell 2 of a CM5 Sensor Chip via amine coupling chemistry to a level of 13025RU. A blocked reference surface was prepared on flowcell 1 by activation with EDC/NHS and deactivation with ethanolaomine using the same volumes as for flowcell 2. HBS-EP buffer (10 mM HEPES pH 7.4, 0.15 M NaCl, 3 mM EDTA, 0.005% Surfactant P20, Biacore AB) was used as the running buffer and assays were performed at 25° C. Anti-IL-1β antibody was passed over flowcells 1 and 2 and captured on the immobilised anti-hF(ab′)₂ surface using a flowrate of 10 μl/min. IL-1β (Strathmann) from 400-0 nM was injected over the blocked and captured anti-IL-1β antibody surface using a flowrate of 30 μl/min for 3 min. The anti-hF(ab′)₂ surface was regenerated with a 30 μl injection of 40 mM HCl followed by a 15 μl injection of 5 mM NaOH. Kinetic parameters were calculated using BIAevalutation 3.1 software.

B2 showed a Kd of 0.32 nM.

What follows are binders tested against T1, recombinant human IL-1β (assay: BIAcore, antibody captured by anti-hFc, IL-1β titrated in solution, 25 °C).
Description: The assay format used anti-IL-1β antibody captured by anti-hFc with a titration of recombinant human IL-1β in the solution phase. Mouse anti-human IgG, Fc fragment-specific (Celltech) was immobilised on flowcell 2 of a CM5 Sensor Chip via amine coupling chemistry to a level of 12757RU. A blocked reference surface was prepared on flowcell 1 by activation with EDC/NHS and deactivation with ethanolamine using the same volumes as for flowcell 2. HBS-EP buffer (10 mM HEPES pH 7.4, 0.15 M NaCl, 3 mM EDTA, 0.005% Surfactant P20, Biacore AB) was used as the running buffer and assays were performed at 25° C. Anti-IL-1β antibody was passed over flowcells 1 and 2 and captured on the immobilised anti-hFc surface using a flowrate of 10 μl/min. IL-1β from 400-0 nM was injected over the blocked and captured anti-IL-1β antibody surface using a flowrate of 30 μl/min for 3 min. The anti-hFc surface was regenerated with a 30 μl injection of 40 mM HCl. Kinetic parameters were calculated using BIAevaluation 3.1 software.

B3 and B4 are within 1.5-fold of each other in Kd: 0.34 nM for the first, 0.38 nM for the second.

B5 and B6 are the same in Kd: 0.28 nM for the first, 0.28 nM for the second.

B7 and B9 are within 1.5-fold of each other in Kd: 0.35 nM for the first, 0.3 nM for the second.

First: B10
Second: B11
The Kd of the first is 4-fold higher: 1.27 nM for the first, 0.32 nM for the second. The second binds more tightly here.

B8 was tested, and the Kd was 1.14 nM and 1.07 nM.
